As a reminder, the Kd is the concentration at which binding is half-saturated. Read a low Kd as higher affinity. One may read the stoichiometry N as a count of units in the complex or per binding partner.

Results on one molecule are retold here after publication PMC2225448.

Square brackets hold non-standard residues; d marks the D form. Ends that are not written are not given here. pY = N[C@@H](Cc1ccc(OP(=O)(O)O)cc1)C(=O)O

The experiment concerns the target SOCS4-ElonginC-ElonginB ternary complex (human), Q8WXH5. Briefly: ITC; 0.3-0.4 mM peptide injected into 15 μM protein; 50 mM HEPES (pH 7.5), 150 mM NaCl, 1 mM DTT, 20°C; blank titrations subtracted; single binding site model. Conditions: remark: other sources report otherwise. In general terms: In ITC the heat of successive injections is recorded.

Sequence of SOCS4-ElonginC-ElonginB ternary complex (human), Q8WXH5 (Q8WXH5 274-437, chain 1 of 3): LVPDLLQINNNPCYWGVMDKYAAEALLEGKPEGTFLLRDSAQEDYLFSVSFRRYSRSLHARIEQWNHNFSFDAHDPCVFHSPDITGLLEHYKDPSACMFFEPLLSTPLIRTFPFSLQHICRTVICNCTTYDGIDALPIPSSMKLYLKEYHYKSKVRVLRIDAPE
Sequence of SOCS4-ElonginC-ElonginB ternary complex (human), Q8WXH5 (Q15369 17-112, chain 2 of 3, further chain): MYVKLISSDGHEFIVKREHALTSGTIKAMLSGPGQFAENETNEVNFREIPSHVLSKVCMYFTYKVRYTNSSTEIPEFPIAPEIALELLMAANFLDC
Sequence of SOCS4-ElonginC-ElonginB ternary complex (human), Q8WXH5 (Q15370 whole entry, chain 3 of 3, further chain): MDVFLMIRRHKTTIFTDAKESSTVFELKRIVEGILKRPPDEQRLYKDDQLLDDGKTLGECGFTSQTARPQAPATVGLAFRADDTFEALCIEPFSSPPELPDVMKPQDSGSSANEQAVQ

B1: EpoR pY402 peptide ASFE(pY)TILDPS (peptide)
peptide: ASFE[pY]TILDPS
On to B1, for which the Ka amounted to 130000 M⁻¹, the Kd came to 7.7 µM, the dH is -14.5 kcal/mol and the stoichiometry N was determined as 0.71.
